Data published in patent publication US20240116985A1 (published 2024).
Starred links: 1 amine or outer side, 2 acyl side, 3 side chain; linkers in the order of their positions; H or OH if unused. Positions of bridges follow the written chain, without caps; N, C: chain ends. Non-standard residues stand in square brackets, D forms with d. Primed or numbered codes have the meaning given here. (Me2NPrPip)GlnR = (S)-2-amino-5-(4-(3-(dimethylamino)propyl)piperazin-1-yl)-5-oxopentanoic acid, CN(C)CCCN1CCN(C(=O)CC[C@H](N[*:1])C(=O)[*:2])CC1; PyrS2″ = (S)-3-amino-1-((pent-4-en-1-yloxy)carbonyl)pyrrolidine-3-carboxylic acid (stapling residue), C=CCCCOC(=O)N1CC[C@@](N[*:1])(C(=O)[*:2])C1; (RDMAPyr)GlnR = (S)-2-amino-5-((R)-3-(dimethylamino)pyrrolidin-1-yl)-5-oxopentanoic acid, CN(C)[C@@H]1CCN(C(=O)CC[C@H](N[*:1])C(=O)[*:2])C1; B5(4) = 2,2-bis(4-pentenyl)glycine = 2-amino-2-(pent-4-en-1-yl)hept-6-enoic acid (stitching residue), C=CCCCC(CCCC=C)(N[*:1])C(=O)[*:2]; (4PyPip)GlnR = (S)-2-amino-5-oxo-5-(4-(pyridin-4-yl)piperazin-1-yl)pentanoic acid, O=C(CC[C@H](N[*:1])C(=O)[*:2])N1CCN(c2ccncc2)CC1; (EtSSpy)GluE = (S)-2-amino-5-oxo-5-(2-(pyridin-2-yldisulfaneyl)ethoxy)pentanoic acid, O=C(CC[C@H](N[*:1])C(=O)[*:2])OCCSSc1ccccn1; TfeGA = (S)-2-amino-3-((carboxymethyl)(2,2,2-trifluoroethyl)amino)propanoic acid, O=C([C@H](CN(CC(=O)[*:3])CC(F)(F)F)N[*:1])[*:2]; (4Pippip)GlnR″ = (S)-5-([1,4'-bipiperidin]-1'-yl)-2-amino-5-oxopentanoic acid, O=C(CC[C@H](N[*:1])C(=O)[*:2])N1CCC(N2CCCCC2)CC1; (EtSSPh)GluE = (S)-2-amino-5-oxo-5-(2-(phenyldisulfaneyl)ethoxy)pentanoic acid, O=C(CC[C@H](N[*:1])C(=O)[*:2])OCCSSc1ccccc1; (EtSSPh)AspE = (S)-2-amino-4-oxo-4-(2-(phenyldisulfaneyl)ethoxy)butanoic acid, O=C(C[C@H](N[*:1])C(=O)[*:2])OCCSSc1ccccc1; (EtSSHex)AspE = (S)-2-amino-4-(2-(hexyldisulfaneyl)ethoxy)-4-oxobutanoic acid, CCCCCCSSCCOC(=O)C[C@H](N[*:1])C(=O)[*:2]; B5(19) = 2-amino-2-(pent-4-en-1-yl)hept-6-enoic acid (bis(4-pentenyl)glycine), C=CCCCC(CCCC=C)(N[*:1])C(=O)[*:2]; (Ppz)GlnR = (S)-2-amino-5-oxo-5-(piperazin-1-yl)pentanoic acid, O=C(CC[C@H](N[*:1])C(=O)[*:2])N1CCN([*:3])CC1; (Morph)GlnR = (S)-2-amino-5-morpholino-5-oxopentanoic acid, O=C(CC[C@H](N[*:1])C(=O)[*:2])N1CCOCC1; GluSH = (S)-2-amino-5-mercapto-5-oxopentanoic acid, O=C(CC[C@H](N[*:1])C(=O)[*:2])S[*:3]; Bta = N[C@@H](Cc1csc2ccccc12)C(=O)O; αAllylPro = C=CC[C@@]1(C(=O)O)CCCN1; tBuAla = CC(C)(C)C[C@H](N)C(=O)O; 3Thi = N[C@@H](Cc1ccsc1)C(=O)O; TfeGA″ = not defined here

target: T1, B-cat-Halo (beta-catenin HaloTag NanoBRET construct expressed in HEK293 cells) (UniProt P35222 1-781); assay: cell-based or functional assay
T1 sequence (looked up): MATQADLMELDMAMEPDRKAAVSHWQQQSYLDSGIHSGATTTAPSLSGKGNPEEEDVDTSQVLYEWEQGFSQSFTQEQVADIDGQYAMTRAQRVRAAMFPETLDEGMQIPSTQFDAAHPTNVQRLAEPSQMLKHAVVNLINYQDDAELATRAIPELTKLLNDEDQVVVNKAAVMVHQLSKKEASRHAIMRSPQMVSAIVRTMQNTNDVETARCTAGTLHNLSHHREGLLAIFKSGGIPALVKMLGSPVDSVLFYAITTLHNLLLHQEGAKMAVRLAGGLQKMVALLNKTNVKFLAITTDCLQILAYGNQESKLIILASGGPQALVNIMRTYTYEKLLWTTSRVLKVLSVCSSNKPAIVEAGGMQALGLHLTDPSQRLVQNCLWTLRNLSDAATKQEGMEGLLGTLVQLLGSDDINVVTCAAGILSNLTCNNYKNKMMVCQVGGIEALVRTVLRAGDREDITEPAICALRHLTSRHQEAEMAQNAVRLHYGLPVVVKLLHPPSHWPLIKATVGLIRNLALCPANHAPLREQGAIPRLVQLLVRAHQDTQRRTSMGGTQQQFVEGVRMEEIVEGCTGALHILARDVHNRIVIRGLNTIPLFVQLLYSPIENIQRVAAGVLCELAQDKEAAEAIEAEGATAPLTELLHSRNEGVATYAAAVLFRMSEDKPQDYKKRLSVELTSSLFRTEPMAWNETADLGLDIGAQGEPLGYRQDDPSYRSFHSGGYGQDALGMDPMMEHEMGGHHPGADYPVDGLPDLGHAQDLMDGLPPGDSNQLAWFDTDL

Binder	NanoBRET Abs IC50
Ac-[αAllylPro]D[tBuAla][B5(19)]D[TfeGA]AAF[(RDMAPyr)GlnR][PyrS2″][3Thi][Bta]Q-NH2 (staple 1-4, 4-11) [I-1939]	20.7 µM
Ac-[αAllylPro]D[tBuAla][B5(4)]D[GluSH]AAFL[PyrS2″][3Thi][Bta]Q-NH2 (staple 1-4, 4-11; also: isomer composition, later eluting HPLC peak) [I-1949]	28.5 µM
Ac-[αAllylPro]D[tBuAla][B5(19)]D[TfeGA]AAF[(Ppz)GlnR][PyrS2″][3Thi][Bta]Q-NH2 (staple 1-4, 4-11) [I-1941]	12.9 µM
Ac-[αAllylPro]D[tBuAla][B5(4)]D[TfeGA″]AAF[(NHBn)GlnR][PyrS2″][3Thi][Bta]Q-NH2 (staple 1-4, 4-11; reading uncertain) [I-1942]	7.9 µM
Ac-[αAllylPro][(EtSSPh)AspE][tBuAla][B5(4)]DDAAFL[PyrS2″][3Thi][Bta]Q-NH2 (staple 1-4, 4-11; also: isomer composition, later eluting HPLC peak) [I-1953]	> 20 µM
Ac-[αAllylPro]D[tBuAla][B5(4)]D[(EtSSpy)GluE]AAFL[PyrS2″][3Thi][Bta]Q-NH2 (staple 1-4, 4-11) [I-1951]	> 20 µM
Ac-[αAllylPro]D[tBuAla][B5(4)]D[TfeGA]AAF[(Morph)GlnR][PyrS2″][3Thi][Bta]Q-NH2 (staple 1-4, 4-11) [I-1943]	3.8 µM
Ac-[αAllylPro][(EtSSPh)AspE][tBuAla][B5(4)]DDAAFL[PyrS2″][3Thi][Bta]Q-NH2 (staple 1-4, 4-11; also: isomer composition, earlier eluting HPLC peak) [I-1952]	> 20 µM
Ac-[αAllylPro]D[tBuAla][B5(19)]D[TfeGA]AAF[(4PyPip)GlnR][PyrS2″][3Thi][Bta]Q-NH2 (staple 1-4, 4-11) [I-1938]	30 µM
Ac-[αAllylPro]D[tBuAla][B5(4)][(EtSSPh)AspE]DAAFL[PyrS2″][3Thi][Bta]Q-NH2 (staple 1-4, 4-11; also: isomer composition, earlier eluting HPLC peak) [I-1954]	> 20 µM
Ac-[αAllylPro]D[tBuAla][B5(19)]D[TfeGA]AAF[(Me2NPrPip)GlnR][PyrS2″][3Thi][Bta]Q-NH2 (staple 1-4, 4-11) [I-1936]	15.7 µM
Ac-[αAllylPro]D[tBuAla][B5(19)]D[TfeGA]AAF[(4Pippip)GlnR″][PyrS2″][3Thi][Bta]Q-NH2 (staple 1-4, 4-11) [I-1940]	15.4 µM

More lines, now with the values ahead:

NanoBRET Abs IC50	Binder
> 20 µM	Ac-[αAllylPro]D[tBuAla][B5(4)][(EtSSHex)AspE]DAAFL[PyrS2″][3Thi][Bta]Q-NH2 (staple 1-4, 4-11) [I-1961]
> 20 µM	Ac-[αAllylPro][(EtSSHex)AspE][tBuAla][B5(4)]DDAAFL[PyrS2″][3Thi][Bta]Q-NH2 (staple 1-4, 4-11; also: isomer composition, earlier eluting HPLC peak) [I-1959]
20.4 µM	Ac-[αAllylPro][(EtSSHex)AspE][tBuAla][B5(4)]DDAAFL[PyrS2″][3Thi][Bta]Q-NH2 (staple 1-4, 4-11) [I-1960]
> 20 µM	Ac-[αAllylPro]D[tBuAla][B5(4)]D[(EtSSPh)GluE]AAFL[PyrS2″][3Thi][Bta]Q-NH2 (staple 1-4, 4-11; also: isomer composition, later eluting HPLC peak) [I-1958]
> 20 µM	Ac-[αAllylPro]D[tBuAla][B5(4)]D[(EtSSHex)AspE]AAFL[PyrS2″][3Thi][Bta]Q-NH2 (staple 1-4, 4-11) [I-1962]
